This note sets out measurements from PMC10557602 (bioRxiv, 2023).

This test concerns the target SARS-CoV-2 nsp12 (SARS-CoV-2, UniProt P0DTD1). In words: cryo-EM structure.

B1: SARS-CoV-2 nsp9 (natural protein)
chain: NNELSPVALRQMSCAAGTTQTACTDDNALAYYNTTKGGRFVLALLSDLQDLKWARFPKSDGTGTIYTELEPPCRFVTDTPKGPKVKYLYFIKGLNNLNRGMVLGSLAATVRLQ
B1: the binding result is listed as “binds”.

B2: RNAylated-nsp9 (20mer RNA) (natural protein)
chain: NNELSPVALRQMSCAAGTTQTACTDDNALAYYNTTKGGRFVLALLSDLQDLKWARFPKSDGTGTIYTELEPPCRFVTDTPKGPKVKYLYFIKGLNNLNRGMVLGSLAATVRLQ
For the molecule B2, the binding result is “binds”.
